{"source": "paper PMC8911618", "about": "“Application of β-Glucosidase in a Biphasic System for the Efficient Conversion of Polydatin to Resveratrol” (Molecules, 2022)", "test_system": "T1, O=[N+]([O-])c1ccc(O[C@@H]2O[C@H](CO)[C@@H](O)[C@H](O)[C@H]2O)cc1", "T1 construct": "signal peptide removed, starts at residue 29 with added Met; C-terminal His6 (reverse primer), pQE30, E. coli JM109, Ni-NTA", "test": "purified protein", "format": "biochemical, Sphingomonas sp. ATCC 31555", "conditions": "McIlvaine buffer, pH 5.5, 45 °C, 0.1–20 mM pNPG"}
{"substance": "SpBGL1 (Sphingomonas sp. ATCC 31555)", "values": [{"measurement": "Km", "value": "13.09 ± 3.43", "unit": "mM"}]}
